Results: the supplement of paper PMC10724198
± gives the standard deviation of the averaged measurements.

tested on: Saccharomyces cerevisiae; assay: protein stability index of tFT-peptide fusion (C-terminal peptide) (PSI (0-1 scale)); higher = more stable (slower turnover); conditions: genetic background: wild type; temperature: 30 C
Protocol: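 Multiplexed protein stability (MPS) profiling in S. cerevisiae. Random 12-aa peptides (tFT-X12 library) are fused to the C-terminus of a sfGFP-mCherry tandem fluorescent timer, after mCherry and a GGGS linker. Cells are FACS-sorted into 8 mCherry/sfGFP bins and deep-sequenced. The protein stability index (PSI) is the read-weighted bin average, scaled from 0 (unstable) to 1 (stable). Only peptides with >10 reads are reported; cells were grown at 30 °C in SC-His with glucose.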
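Also: PSI is a weighted mean of sequencing reads over stability bins, variants kept only with over 10 reads, mCherry proximal and sfGFP distal, peptide attached via GGGS linker.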

Point of comparison: APPDQPEEGTRA, protein stability index 0.6332 ± 0.0033. Against it:
- AAALPSNLLSSF — higher, 0.656 ± 0.017
- AACSCGCLTGVG — lower, 0.527 ± 0.012
- AALVFPSCVVGG — lower, 0.60949 ± 0.00034
- AAPAAPATPSPR — higher, 0.716 ± 0.065
- AAPDSGTPPLAA — higher, 0.6435 ± 0.0043
- AAPPAYGPPPPP — higher, 0.6974 ± 0.0025
- AARWHEPLSRER — higher, 0.699 ± 0.029
- AAVRGAYPDSEG — within error, 0.64 ± 0.043
- AAWPYKYYLAHI — within error, 0.617 ± 0.061
- ACGLGGPSDIDN — higher, 0.672 ± 0.013
- ACGSRGGQTERP — higher, 0.7143 ± 0.0066
- ACPPRPPFRSPS — higher, 0.698 ± 0.026
- ADKIPHSDNRSR — higher, 0.697 ± 0.01
- ADLTTPHPDPRP — higher, 0.674 ± 0.0096
- AEKKEERQRTSN — higher, 0.681 ± 0.032
- AEKSYRYIYGKT — higher, 0.669 ± 0.029
- AELVVRNGVGGI — higher, 0.831 ± 0.077
- AERARRERRGGV — within error, 0.712 ± 0.1
- AERKTKASRRKE — within error, 0.654 ± 0.019
- AESCRASVVFGV — higher, 0.6849 ± 0.0041
- AESLGLNYGSVY — within error, 0.657 ± 0.05
- AFCFCIFSSFLV — lower, 0.535 ± 0.021
- AFFLHKTFRSSF — higher, 0.732 ± 0.028
- AFGSVSLSCLWV — within error, 0.676 ± 0.073
- AFPSLRSLPLFS — within error, 0.608 ± 0.024
- AFPSPPATPSSQ — within error, 0.645 ± 0.079
- AFRCGGAPGDFA — higher, 0.654 ± 0.0094
- AFRISLSCPISL — within error, 0.619 ± 0.056
- AFTPGTTVYVSQ — higher, 0.699 ± 0.037
- AFYGDNNTVERM — higher, 0.762 ± 0.053
- AGAGLGGVLGWW — higher, 0.671 ± 0.02
- AGARPEGPRWGE — higher, 0.703 ± 0.021
- AGESPDLSARCG — within error, 0.661 ± 0.11
- AGFCRVFSYDFV — higher, 0.708 ± 0.04
- AGGAASWPAFFP — higher, 0.793 ± 0.02
- AGGGARLGVGRA — within error, 0.637 ± 0.065
- AGGGLGAEGCGG — higher, 0.788 ± 0.038
- AGGGLGGGGGGP — higher, 0.729 ± 0.031
- AGGLCEGGWRGR — higher, 0.6885 ± 0.0035
- AGGQRCNWGNTI — higher, 0.6778 ± 0.0053
- AGGRGVPSMGNG — within error, 0.644 ± 0.033
- AGGVEGRRRVGE — within error, 0.642 ± 0.073
- AGHFITRTGGPT — within error, 0.7 ± 0.07
- AGHFRVRWGVWS — within error, 0.651 ± 0.056
- AGHILSDGTYLP — higher, 0.826 ± 0.13
- AGISSLLVQSVP — within error, 0.679 ± 0.049
- AGMRRRGGAGGW — within error, 0.684 ± 0.052
- AGPAIEGARAPR — higher, 0.7684 ± 0.0022
- AGPATSSSPPVS — higher, 0.688 ± 0.032
- AGPGGSGGAGEP — higher, 0.68 ± 0.026
- AGQWGCAGGGEW — higher, 0.703 ± 0.013
- AGRRASGRVGSG — higher, 0.728 ± 0.018
- AGTIRTTPLTAL — within error, 0.643 ± 0.033
- AGVTGGDGYGRW — within error, 0.583 ± 0.064
- AGVVRGGRGVGI — higher, 0.728 ± 0.025
- AGWCKGMWVSLG — within error, 0.656 ± 0.036
- AGWKGGTSRGER — higher, 0.6618 ± 0.0053
- AHTPGTHLGRKT — higher, 0.71 ± 0.0082
- AICRVGGFGRKD — higher, 0.717 ± 0.01
- AIIKADKIRRKK — higher, 0.6751 ± 0.0028
- AIKCSDTLLTWV — higher, 0.7194 ± 0.0042
- AILSTSHSPWNS — higher, 0.737 ± 0.053
- AINAHGISKSYA — higher, 0.688 ± 0.019
- AIRIERLGLAIP — higher, 0.682 ± 0.033
- AIRLFFRSDARG — within error, 0.618 ± 0.014
- AKEIVYAPRNPD — within error, 0.645 ± 0.053
- AKKKEIQSTKHK — higher, 0.705 ± 0.0093
- AKPPLAPSRNAL — within error, 0.656 ± 0.029
- AKSKALGLSPRS — within error, 0.649 ± 0.046
- AKTQGLLMVTLQ — within error, 0.712 ± 0.12
- ALASPIPCPPPP — higher, 0.715 ± 0.056
- ALCEIWQSLLLA — lower, 0.456 ± 0.13
- ALFLFGSDRFFV — higher, 0.747 ± 0.026
- ALFNEVFRSLLL — higher, 0.712 ± 0.054
- ALFPNALYQTLL — higher, 0.723 ± 0.05
- ALFTFFSARLTR — higher, 0.748 ± 0.044
- ALGGPPLSPSPH — higher, 0.7299 ± 0.007
- ALHHPPLPHPRS — within error, 0.663 ± 0.084
- ALIFPLPASSTF — within error, 0.609 ± 0.038
- ALIYMRGLGRFF — lower, 0.555 ± 0.025
- ALLPLTHLPLHP — within error, 0.666 ± 0.1
- ALLPPPCFFLLP — higher, 0.673 ± 0.0041
- ALLPVLPSRPAP — higher, 0.7431 ± 0.0046
- ALLRSLSSLPLV — lower, 0.602 ± 0.011
- ALLSFVVSSGPA — higher, 0.675 ± 0.026
- ALMEFLVFSRCG — within error, 0.642 ± 0.074
- ALPETKVSRRQS — within error, 0.677 ± 0.11
- ALPIVPDVCFSP — within error, 0.679 ± 0.051
- ALPPIARPPPRV — higher, 0.733 ± 0.029
- ALPRAPSRPPAR — within error, 0.67 ± 0.042
- ALPSALPPLPPP — higher, 0.723 ± 0.055
- ALRFLISCRLLD — lower, 0.62622 ± 0.00026
- ALRGSYTSFALA — within error, 0.623 ± 0.066
- ALSTFTGFLRIP — lower, 0.55 ± 0.01
- ALVGMNVQRRRV — higher, 0.705 ± 0.018
- ALVRVVRGIGFC — within error, 0.697 ± 0.062
- ALWWRVGCGVGL — within error, 0.657 ± 0.042
- AMAELVCVSLRC — lower, 0.536 ± 0.016
- ANAPPTASFSPP — higher, 0.6745 ± 0.0014
- ANEAAYICKGNG — higher, 0.682 ± 0.039
- APDPARPSTRPL — higher, 0.6892 ± 0.0058
- APGACWKERWVR — higher, 0.737 ± 0.037
- APGPPLLLPPPL — within error, 0.697 ± 0.1
- APGWNNMALDVD — higher, 0.728 ± 0.021
- APHYPTGPTVKI — higher, 0.692 ± 0.033
- APLLAPPPPSRT — within error, 0.642 ± 0.009
- APLPPRSALVGL — higher, 0.6759 ± 0.0011
- APPEAPQEPLTL — higher, 0.727 ± 0.0092
- APPFRLLPLPSP — higher, 0.7573 ± 0.005
- APPLSLPPRLFL — higher, 0.69 ± 0.035
- APPPAYGPPPPP — higher, 0.692 ± 0.044
- APPPPFCHAPTS — within error, 0.6366 ± 0.00082
- APPPSLHCLRLP — higher, 0.725 ± 0.071
- APPRLSPLPPPP — higher, 0.6848 ± 0.0065
- APPRPPPPSPIP — higher, 0.726 ± 0.057
- APPRSPLFSSLF — within error, 0.638 ± 0.01
- APPTPPHPRPSS — higher, 0.7269 ± 0.0036
- APPTTPPPGTHP — within error, 0.696 ± 0.069
- APRPAPRPTPLG — higher, 0.706 ± 0.051
- APRPPPCPRPGT — higher, 0.7499 ± 0.003
- APRPRSPLLPPA — within error, 0.648 ± 0.019
- APSPLLPPHSPP — within error, 0.612 ± 0.043
- APSVSHAPSRLL — higher, 0.706 ± 0.023
- APVHPPPGFLLP — higher, 0.695 ± 0.023
- APVTFDKSHVST — higher, 0.669 ± 0.031
- APYPVSRGLLGF — within error, 0.656 ± 0.057
- AQAEGLYRGTAD — higher, 0.657 ± 0.011
- AQAPVDPTPVPL — within error, 0.658 ± 0.11
- AQCAFIKAGVTW — within error, 0.686 ± 0.051
- AQCDAVPFMFCV — higher, 0.663 ± 0.025
- AQPFATTGGGLV — within error, 0.69 ± 0.24
- AQPRGLLVCPFL — within error, 0.664 ± 0.044
- AQRGSTAASAGG — within error, 0.683 ± 0.07
- AQTRSVGWEFGY — higher, 0.685 ± 0.0093
- ARASPPARRSPT — within error, 0.673 ± 0.058
- ARCLTGFYSFTF — higher, 0.794 ± 0.019
- AREEGRQNQGMP — within error, 0.665 ± 0.042
- ARFGYYLGLGRC — higher, 0.748 ± 0.065
- ARGGIGTCSWGG — higher, 0.727 ± 0.0095
- ARHPLCLPVLLT — lower, 0.548 ± 0.02
- ARIWLGSTSVSR — within error, 0.739 ± 0.14
- ARLPLPGSPPFS — higher, 0.719 ± 0.0029
- ARLPTYLAAPPP — higher, 0.726 ± 0.089
- ARMPQVSEIALC — higher, 0.6612 ± 0.00024
- ARQHGLELTNPR — higher, 0.678 ± 0.015
- ARRAAPRRPPSD — higher, 0.689 ± 0.047
- ARRGAGGGHKGD — within error, 0.673 ± 0.038
- ARRPAESHGTTI — higher, 0.716 ± 0.012
- ARRSAGGAAVPG — within error, 0.624 ± 0.0098
- ARSHSPPPPRPP — higher, 0.6723 ± 0.0029
- ARSRPSILSGPE — within error, 0.689 ± 0.062
- ARVAPPWRSTRA — within error, 0.683 ± 0.049
- ASATCQKGSIPR — higher, 0.677 ± 0.036
- ASCPLHFTDIRP — higher, 0.679 ± 0.018
